Experimental data from patent US20030138522A1.

Target: wheat extractable xylanolytic enzymes
Assay: cell-based or functional assay

With “purified wheat endogenous xylanase inhibitor” the OD (Xylazyme substrate, xylanase activity; 100 µl xylanolytic extract + 100 µl purified inhibitor; control without inhibitor OD 0.8) was 0.277 OD, the OD (Xylazyme substrate, xylanase activity; 250 µl xylanolytic extract + 100 µl purified inhibitor; control without inhibitor OD 0.867) was 0.275 OD and the OD (Xylazyme substrate, xylanase activity; 500 µl xylanolytic extract + 100 µl purified inhibitor; control without inhibitor OD 1.031) was 0.414 OD.
